The values below come from publication PMC6784197.

Test [1] deals with <CD138> Ha-La. Nature of the test: SPR; monovalent (affinity) set-up: antibody captured via anti-hFc on CM5 chip, hCD138 as analyte 66-600 nM; Biacore T200, HBS-P+ pH 7.4, 25 °C; 1:1 Langmuir model.
Test [2] addresses <CD138> Ha-Lg. The description is as above.
Test [3] deals with <CD138> Ha-Lw. The test is described as above.
For test [4], the target named is <CD138> Hb-La. Described as above.
In test [5] the target is <CD138> Hb-Lg. Described as above.
Test [6] concerns the target <CD138> Hb-Lw. Described as above.
The target in test [7] is <CD138> Hw-La. The description is as above.
Test [8] has as its target <CD138> Hw-Lw (parent IgG). Described as above.
Test [9] deals with <CD138> Hg-Lw. Description: SPR; monovalent (affinity): anti-CD138 IgG variants (30 nM) captured via anti-hFc on CM5; hCD138 as analyte, 66-600 nM; HBS-P+ pH 7.4, 25 °C; 1:1 Langmuir model; Biacore T200.
Test [10] deals with T1, hCD138 (human Syndecan-1), extracellular domain (human) (UniProt P18827).
T1 sequence: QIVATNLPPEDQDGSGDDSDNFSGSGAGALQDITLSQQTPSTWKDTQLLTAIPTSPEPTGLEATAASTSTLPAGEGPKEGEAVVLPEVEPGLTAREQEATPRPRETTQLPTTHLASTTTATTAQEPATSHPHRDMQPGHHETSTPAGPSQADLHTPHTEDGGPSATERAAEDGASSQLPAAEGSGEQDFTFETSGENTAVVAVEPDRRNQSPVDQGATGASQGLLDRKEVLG
Description: SPR; bivalent (avidity) set-up: CD138 amine-coupled to CM5 chip (240 RU), IgG as analyte 33-300 nM; Biacore T200, HBS-P+ pH 7.4, 25 °C; 1:1 Langmuir model.

Positions count from the first letter of the chain named.

B1: hCD138 (human Syndecan-1), extracellular domain (domain or fragment)
chain: T1 sequence
On to B1, for which the Kd in test [1] came out at 240 nM; in test [2], 380 nM; in test [3] it was 190 nM; in test [4], 140 nM; in [5], 610 nM; in [6] it was 150 nM. Moreover, the Kd in test [7] came out at 71 nM; in test [8], 80 nM. In addition, the koff in test [1] is 0.013 s⁻¹; in test [2], 0.045 s⁻¹; in [3] it was 0.015 s⁻¹; in test [4], 0.025 s⁻¹; in [5] it was 0.079 s⁻¹; in [6], 0.027 s⁻¹. For the same molecule, the koff turned out to be 0.0061 s⁻¹ in test [7] and 0.0062 s⁻¹ in test [8]. Also, the kon stood at 55000 M⁻¹ s⁻¹ in [1]; 120000 M⁻¹ s⁻¹ in [2]; 76000 M⁻¹ s⁻¹ in test [3]; 170000 M⁻¹ s⁻¹ in test [4]; 130000 M⁻¹ s⁻¹ in test [5]; 180000 M⁻¹ s⁻¹ in test [6]. In addition, the kon in test [7] came out at 87000 M⁻¹ s⁻¹; in test [8], 77000 M⁻¹ s⁻¹.

B2: hCD138 (human Syndecan-1, R&D Systems 2780-TS) (domain or fragment)
chain: T1 sequence
With B2, the fold reduction of affinity against the parent Hw-Lw in test [9] was more than 100 fold.

B3: <CD138> Hb-Lg (antibody, V domains shown)
VH: QVQLQQSGSELMMPGASVKISCKATGYTFTGYWIEWVKQRPGHGLEWIGEILPGTGRTIYNEKFKGKATFTADISSNTVQMQLSSLTSEDSAVYYCARRDYYGNFYYAMDYWGQGTSVTVSS
VL: DIQMTQSTSSLSASLGDRVTISCSASQGISNYLNWYQQKPDGTVELLIYYTSSLHSGVPSRFSGSGSGTDYSLTISNLEPEDIGTYYCQQYSKLPRTFGGGTKLEIK
Consider B3, for which, in test [10], the Kd came to 2.4 nM, the koff is 0.0005 s⁻¹ and the association rate constant (kon) was determined as 390000 M⁻¹ s⁻¹.

B4: <CD138> Hg-Lw (antibody, V domains shown)
VH: B3 VH with T55S, R57S, I59N
VL: B3 VL with S30N, S53T, H55Q
In [10], B4 gave a Kd of 230 nM, a koff of 0.051 s⁻¹ and a kon of 210000 M⁻¹ s⁻¹.

B5: <CD138> Ha-Lw (antibody, V domains shown)
VH: B3 VH with T30S, G31N, R57S
VL: B3 VL with S30N, S53T, H55Q
In the case of B5, in test [10], the Kd amounted to 0.42 nM, the koff was determined as 7.1e-05 s⁻¹ and the kon came out at 170000 M⁻¹ s⁻¹.

B6: <CD138> Hb-La (antibody, V domains shown)
VH: B3 VH
VL: B3 VL with S30N, S53T
In test [10], B6 registered a Kd of 0.31 nM, a koff of 0.00012 s⁻¹ and a kon of 400000 M⁻¹ s⁻¹.

B7: <CD138> Ha-La (antibody, V domains shown)
VH: B3 VH with T30S, G31N, R57S
VL: B3 VL with S30N, S53T
In test [10], B7 returned a Kd of 0.4 nM, a koff of 6.4e-05 s⁻¹ and a kon of 160000 M⁻¹ s⁻¹.

B8: <CD138> Hb-Lw (antibody, V domains shown)
VH: B3 VH
VL: B3 VL with S30N, S53T, H55Q
In test [10], B8 showed a Kd of 0.28 nM, a koff of 0.00011 s⁻¹ and a kon of 350000 M⁻¹ s⁻¹.

B9: <CD138> Ha-Lg (antibody, V domains shown)
VH: B3 VH with T30S, G31N, R57S
VL: B3 VL
Regarding B9, in test [10], the Kd was determined as 0.83 nM, the koff amounted to 0.00029 s⁻¹ and the kon is 160000 M⁻¹ s⁻¹.
